The record followed here is a protein production outcome set (Wang et al. 2014).

A short description of this series: label from the status in PepcDB records.
In the case of “MDKHKKNNQKEKRVKRNLKTLLLGSPREITIPGSRFPNGTQNLVPVVDIQKGVLITEDGRYIKVLEIVPTNFYLKSRIEQQNIIYYFSCYLKIAPQSLQILVCTQRADIDAYCDQMEKYYNREKNENCKAMILEDAQLVNYLASYEAVTRRFYLIYEYKGEATEFTEISKELADQAETAYQYLDYCGLEVLRHDNYDEFLLRTVYTAYHKQSARNINFSALMEQVGPVFNTPEITEDQLEEEDSEGITTIQDVLAPTEADLEHSKYILIDGVYHAYLYITGYSYPTERGLAWLSPLIELGDGISLSFFLEKKRKEQILSKVVKTTMINRSRLRDIEDIRADYEELDDAIYSGMYIKDRLNRDGEDFFYMHTLIEVTALDETTLNKRIKQVQNLCVSMDMTARRADWCHEQCFRSMLPIAKLDMDIAKRTQRNVLTSGAAGAFPFSSFELCDNKGVLMGINLHNNSAVIVDNFNSDIYSNGNLAIFGMSGAGKTYTLLLLAMRLRMCGVQVFIIAPEKGFEYRCACEAIGGQFLRLSPGSEDCINLMEIRRSTLDIDSNLANNIQRNDSVLLSKVQDLHTYIRLRYPQITPEEAYQLNIAILECYESFGITKDNRSLLNPDGSFKAMPDFTHLYSCLLKYPSLKNVALAVKEIIDFGMGGQTNVDLFSSFIVLDTSGAKKKDISSSTFVATSFIRDELSRSRTRKKAVLGDELWVIAGEEGNEQAADFIIEMVKLIRGYGAIFVSATQNTLDYFALRDGKFGDALLNNSRLKLLLQMEEAEAIKLQEKLGLSDEEVMQVVRCGRGQGLLCAGKNRIGIEIRSSQTEYELITTNRTDLEKREARTDTAEL”, the protein production entry is recorded as “failed”. As for “MDKILEILKDFGIVELRPPQKKALERGLLDKNKNFLISIPTASGKTLIGEMALINHLLDGNKNPTNKKGIFIVPLKALASEKYEEFKSKYERYGLRIALSIGDYDEDEDLSKYHLIITTAEKLDSLWRHKIDWINDVSVVVVDEIHLINDETRGGTLEILLTKLKEFNVQIIGLSATIGNPDELAEWLNAELIVDDWRPVELKKGIYKNEAIEFINGEIREIKAVDNNDIYNLVVDCVKEGGCCLVFCNTKRNAVNEAKKLNLKKFLTEEEKIRLKEIAEEILSILEPPTEMCKTLAECILNGSAFHHAGLTYQHRKIVEDAFRKRLIKVICCTPTLCLNANTEILQESGFRKITELNKDEKVFALCGKEIKPVDGWKVHKTPQHEYNIVVKTVNGLEITTTPNHIFLVKENGSLKEKEAKDLKVGDYVATVDRIRVKEKDIDLSNGDLYFIGYFIGDGYTGVIEKNTLKATPDLAFNPKYPPNFDDSELHKKYFLKCRISKGVAHYIYSKKLRKIFNKLNMLTKDNKNIDAFCNLPLDKLAYLIAGLFDSDGYIYLNRKNIEFYSISEKLVEQLQFVLLRFGIHSSIRKKKTKTMVSPTNGKEYKCKDIYVLTIRDFMSIKRFYENIPLRHEEKRRKLEEIIKNKEIGQIPSEFVALRFTPIAKIWCDCGFSVDLTMFKPRTKRQRELNKKRVKLLFELLDGKKLITNYKEYYSKRKNPYFDFIVREKINGNNYYSLNEKGRVLMSLLNKHIKDKENLEEMYNFLVNLEKCPICGKPIHKEMRYSWKKECYDGDIYWDRIKEIKKIKVNDKYAYDIELPDDGSNSHYIVANGFIVHNSAGLNLPCRRAIVKDLTRFTNKGMRYIPIMEIQQCIGRAGRPGLDPYGEGIIVAKNDRDYLRAYQALTQKPEPIYSKLSNQAVLRTQLLGLIATGEIRDEYDLEWFIRNTFYAHQYGNLREVAKNINEVIRFLEENEFIIDFMPTELGKRVSELYIDPLSAKFIIDGLEEMENEEEIYYLYLISKTLEMMPNLRVYNSEELNLIDEMDSLGIKSFEIEDLEAFKTAKMLYDWINEVPEDEILKRYKIEPGILRYKVENAVWIMHALKEIAKLIGKSSDIPEKLEIRLEYGAKEDIIELLSIKYIGRVRARKLYNAGIRSIEDIINNPSKVASIIGEKIAKKILDELGVKFGQQKLSF”, the entry is “failed”; as for “MDKLEAMQVYVCVVDTHSFIRAAEVLGVPRSTVSRVVKELESWLKIQLLQRTTRKLSVTAEGRRYYEECKRVLADIAAMESSFPGRAAQPKGRFKVGMPQSLARHCIIPTLPAFLRQYPELELILCSSDSVEDIILQGYDCVIRAGRIDDSTTLVARPLASFNWVIAASPTYIERYGSPENLDDLQKHYAVGYLNHRTGRTTDWFFTREGEDYAMRVQETLVVDDTDAYIQAGIQGLGLIRVASYLVAPYLHSGALVTCMDNHSYDLPLALVYPQNRFLPPAVRAFYHWCKTALSQPEPFC”, “failed”. Next, “MDKLNKITVPASQKLRQLQKMVHDIKNNEGGIMDKIKKLKVKGPPSVPRRDYALDSPADEEEQWSDDFDSDYENPDEHSDSEMYVMPAEETGDDSYEPPPAEQQTRVVHPALPFTRGEYVDNRSSQRHSPPFSKTLPSKPSWPSAKARLASTLPAPNSLQKPQVPPKPKDLLEDEADYVVPVEDNDENYIHPRESSPPPAEKAPMVNRSTKPNSSSKHMSPPGTVAGRNSGVWDSKSSLPAAPSPLPRAGKKPATPLKTTPVPPLPNASNVCEEKPVPAERHRGSSHRQDTVQSPVFPPTQKPVHQKPVPLPRFPEAGSPAADGPFHSFPFNSTFADQEAELLGKPWYAGACDRKSAEEALHRSNKDGSFLIRKSSGHDSKQPYTLVAFFNKRVYNIPVRFIEATKQYALGKKKNGEEYFGSVVEIVNSHQHNPLVLIDSQNNTKDSTRLKYAVKVS”: “not failed”. “MDKLVKYQELVKKLLTNYASDDVSDQDVEVQLILDTERNHYQWMNVGWQGLNRIYRCVIHFDIKDGKIWLQQNLTDRNPAEELVMMGVPREDIVLGLQAPYKRQYTDYGVA”: the protein production result was “not failed”.

As to “MDKNIIIGAMTALITPFKNGKVDEQSYARLIKRQIENGIDAVVPVGTTGESATLTHEEHRTCIEIAVETCKGTKVKVLAGAGSNATHEAVGLAKFAKEHGADGILSVAPYYNKPTQQGLYEHYKAIAQSVDIPVLLYNVPGRTGCEISTDTIIKLFRDCENIYGVKEASGNIDKCVDLLAHEPRMMLISGEDAINYPILSNGGKGVISVTSNLLPDMISALTHFALDENYKEAKKINDELYNINKILFCESNPIPIKTAMYLAGLIESLEFRLPLCSPSKENFAKIEEVMKKYKIKGF”, the protein production entry is reported as “not failed”. As for “MDKNNNNLRLILAIALSFLFIALYSYFFQKPNKTTTQTTKQETTNNHTATSPNAPNAQHFSTTQTTPQENLLSTISFEHARIEIDSLGRIKQVYLKDKKYLTPKQKGFLEHVGHLFSSKENAQPPLKELPLLAADKLKPLEVRFLDPTLNNKAFNTPYSASKTTLGPNEQLVLTQDLGTLSIIKTLTFYDDLHYDLKIAFKSPNNLIPSYVITNGYRPVADLDSYTFSGVLLENSDKKIEKIEDKDAKEIKRFSNTLFLSSVDRYFTTLLFTKDPQGFEALIDSEIGTKNPLGFISLKNEANLHGYIGPKDYRSLKAISPMLTDVIEYGLITFFAKGVFVLLDYLYQFVGNWGWAIILLTIIVRIILYPLSYKGMVSMQKLKELAPKMKELQEKYKGEPQKLQAHMMQLYKKHGANPLGGCLPLILQIPVFFAIYRVLYNAVELKSSEWILWIHDLSIMDPYFILPLLMGASMYWHQSVTPNTMTDPMQAKIFKLLPLLFTIFLITFPAGLVLYWTTNNILSVLQQLIINKVLENKKRMHAQNKKEH”, the entry is “failed”; as for “MDKPILKDSMKLFEALGTIKSRSMFGGFGLFADETMFALVVNNQLHIRADQQTSSDFETQGLKPYVYKKRGFPVVTKYYAISSELWESSDRLIEVAKKSLENAKL”, “not failed”.

Regarding “MDKPVLKDSMRLFEQLGRVKSRSMFGGFGIFVDETMFALVVNDTLHIRADDATIEKYKQQGYEPYVYKKRGFPVVTKYYALPEDCWSHPDSILNEVRAALEVAKA”, the protein production entry is “failed”. Turning to “MDKQAILDNIHQTWQEEANAISRLPEVTSEEALVKTVEKIAECTGKIVVAGCGTSGVAAKKLVHSFNCIERPAVFLTPSDAVHGTLGVLQKEDILILISKGGNTGELLNLIPACKTKGSTLIGVTENPDSVIAKEADIFFPVSVSKEPDPFNMLATASTMAVIASFDAVIVCLMTYMNYTKEQFSVIHPGGAVGNKLLNK”, the protein production entry is reported as “not failed”.

Turning to “MDKRFVQAHKEARWALWLTLLYLAAWLAAAYLPGVAIGFTGLPHWFEMACLLVPLLFILLCWAMVKLIFRDISLEDDDAV”, the protein production result is “failed”.
